Reference: article PMC9513230, “Inhibition of Plasmodium falciparum Hsp70-Hop partnership by 2-phenylthynesulfonamide” (Frontiers in Molecular Biosciences, 2022)
Where two headings read alike, the source gives them in different places.

Tests used:
[1] = target: PfHsp70-1-PfHop association (Plasmodium falciparum, UniProt Q8IB24+Q8ILC1); assay: ELISA for the direct association of PfHsp70-1 and PfHop; type: biochemical; conditions: for Effect on association of PfHsp70-1 and PfHop: 25 µM nucleotide or inhibitor
Description: An enzyme-linked immunosorbent assay (ELISA) was used to validate the effect of PES on the direct association of PfHsp70-1 and PfHop following a previously described protocol ([Mabate et al., 2018]). Briefly, ligand (5 μg/ml of PfHsp70-1) suspended in 5 mM sodium bicarbonate (NaHCO3) at pH 9.5 was noncovalently immobilized onto a 96 well plate overnight at 4 C. BSA (5 μg/ml) was used as a ligand for the negative control. The wells were washed with 150 µl TBST which contains (Tris-buffered saline- Tween (TBST; 20 mM Tris HCl, pH 7.5, 500 mM NaCl supplemented with 0.1% Tween 20) prior to blocking with 5% fat-free milk in TBST and incubated at 25 C for 1 h. The wells were washed using TBST for a total of 10 min. Varying concentrations (0–1,000 nM) of analyte PfHop were added to the wells and incubated for 2 h at 25 °C. To remove the unbound analyte, the plate was washed with 150 µl TBST three times before the addition of rabbit-raised α-PfHop antibody (1: 4,000) followed by incubation at 25°C for 1 h. Subsequently, the wells were washed with 150 µl TBST three times before the addition of 100 µl secondary HRP conjugated goat-raised α-rabbit antibody (1: 4,000) and incubated for 45 min at 25 °C. The substrate, 3,3’5,5’ –tetramethylbenzidine (TMB) (Bio Scientific, United States) was added into the wells and incubated for 2 min at 25 C. Color development was monitored by recording absorbance readings at 370 nm at 5 min time intervals for 30 min using a SpectraMax M3 Microplate reader (Molecular Devices, United States). To determine the effect of the inhibitor, the assay was conducted in the presence of 25 µM) of PES. […] Furthermore, the assay was repeated interchanging the ligand and analyte to validate data reproducibility. The generated data were analyzed taking into account the background signal generated by BSA which served as the control protein. The absorbance values obtained at the highest concentration of each analyte were averaged to represent maximum (100%) binding. Titration curves were then generated using GraphPad Prism 9.3.1 (GraphPad Software, United States). The relative binding affinities of PES under each experimental setting were normalized relative to the affinity estimated for assay conducted in the absence of nucleotide at the highest concentration of PfHop. Statistical analysis was conducted to establish significant differences at p < 0.05 using a student t-test.

PfHop = target: T1, PfHop (Plasmodium falciparum, UniProt Q8ILC1); assay: SPR equilibrium binding to immobilized PfHop
T1 construct: His; made in house; host or cells: E. coli XL1 Blue
T1 sequence (Q8ILC1 1-564): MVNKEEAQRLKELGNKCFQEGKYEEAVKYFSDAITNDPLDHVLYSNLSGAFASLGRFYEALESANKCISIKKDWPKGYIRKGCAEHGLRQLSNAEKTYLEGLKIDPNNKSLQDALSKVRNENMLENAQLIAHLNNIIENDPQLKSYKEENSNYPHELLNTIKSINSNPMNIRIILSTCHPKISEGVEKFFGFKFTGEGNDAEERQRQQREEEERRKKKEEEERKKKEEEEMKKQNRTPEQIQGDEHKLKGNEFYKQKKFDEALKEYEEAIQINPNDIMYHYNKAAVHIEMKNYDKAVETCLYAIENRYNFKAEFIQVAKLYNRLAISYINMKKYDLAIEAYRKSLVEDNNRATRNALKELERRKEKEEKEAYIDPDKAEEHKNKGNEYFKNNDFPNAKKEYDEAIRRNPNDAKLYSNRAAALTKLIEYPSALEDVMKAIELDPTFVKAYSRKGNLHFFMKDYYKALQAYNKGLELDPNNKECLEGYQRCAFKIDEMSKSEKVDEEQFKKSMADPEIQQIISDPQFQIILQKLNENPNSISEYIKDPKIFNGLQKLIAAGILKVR
Description: The steady-state equilibrium binding kinetics for the inhibitors on either PfHsp70-1 or PfHop were investigated using BioNavis Navi 420A ILVES multi-parametric surface plasmon resonance (MP-SPR) system (BioNavis, Finland) following a previously described method ([Lebepe et al., 2020]; [Chakafana et al., 2021]). Briefly, filter-sterilized de-gassed PBS (4.3 mM Na2HPO4, 1.4 mM KH2PO4, 137 mM NaCl, 3 mM KCl, 0.005% (v/v) Tween 20, and 20 mM EDTA; pH 7.4) was used as running buffer for the assay. The ligand (0.1 μg/ml of PfHsp70-1/PfHop) was immobilized onto a carboxymethyl dextran (CMD 3-D) gold sensor chip through amine coupling. PES was injected (flow rate of 50 μl/min) as analyte at varying final concentrations (0, 1.25, 2.5, 5, 10, 20 nM). […] Steady-state equilibrium was achieved after allowing the interaction to occur for 8 min at 25°C, followed by dissociation for 4 min at 25°C, respectively. The data generated were analyzed using Data Viewer (BioNavis, Finland) after subtraction of baseline (signals generated on the chip surface without protein immobilized and buffer without inhibitor). The resultant sensorgrams were analyzed to determine the equilibrium binding affinities using Trace Drawer software version 1.8 (Ridgeview Instruments; Sweden).

[2] = tested on: Asexual P. falciparum strain 3D7 parasites; assay: Parasite growth inhibition assay (SYBR Gold); type: cell-based; conditions: Plasmodium falciparum, 3D7, 96 h, read-out: IC50 parasite growth
Description: Parasite growth without any drug present, which allowed the parasites to proliferate unrestricted, was used as negative drug control. SYBRTM Gold DNA stain (Invitrogen, ThermoFisher Scientific Inc., Germany) was used to measure the proliferation of the parasites compared to the controls as previously described ([[…] al., 2004]). Fluorescence was measured using a TECAN Spark® multimode microplate reader (Tecan Trading AG, Switzerland) and the data were analyzed using SigmaPlot, version 12 (Systat Software Inc., IL, United States).

[3] = tested on: Asexual P. falciparum strain 3D7 parasites; conditions: read-out: IC50 published potency, ref Smilkstein et al., 2004; cited from earlier work
[4] = target: T2, Plasmodium falciparum Hsp70-1 (Plasmodium falciparum, UniProt Q8IB24 1-677); assay: SPR; PfHsp70-1 immobilised as ligand; PfHop analyte 0-2000 nM, 25 C, PBS; with 25 uM ADP; bivalent fit model; conditions: both partners purified
T2 construct: Plasmodium falciparum Hsp70-1 (PF3D7_0818900), cytosolic Hsp70; also called PfHsp70-1; PF3D7_0818900

[5] = target: T2, Plasmodium falciparum Hsp70-1; assay: SPR; ligand and analyte switched: PfHop immobilised, PfHsp70-1 analyte; with ADP; bivalent fit model; conditions: both partners purified
[6] = target: T2, Plasmodium falciparum Hsp70-1; assay: SPR; PfHsp70-1 immobilised as ligand; PfHop analyte 0-2000 nM, 25 C, PBS; with 25 uM EGCG; bivalent fit model; conditions: both partners purified
[7] = target: T2, Plasmodium falciparum Hsp70-1; assay: SPR; ligand and analyte switched: PfHop immobilised, PfHsp70-1 analyte; no nucleotide or inhibitor (NN); bivalent fit model; conditions: both partners purified
[8] = target: T2, Plasmodium falciparum Hsp70-1; assay: SPR; PfHsp70-1 immobilised as ligand; PfHop analyte 0-2000 nM, 20 ul/min, 25 C, PBS; no nucleotide or inhibitor (NN); bivalent fit model; conditions: both partners purified
[9] = target: T2, Plasmodium falciparum Hsp70-1; assay: SPR; ligand and analyte switched: PfHop immobilised, PfHsp70-1 analyte; with PES; bivalent fit model; conditions: both partners purified
[10] = target: T2, Plasmodium falciparum Hsp70-1; assay: SPR; PfHsp70-1 immobilised as ligand; PfHop analyte 0-2000 nM, 25 C, PBS; with 25 uM PES; bivalent fit model; conditions: both partners purified
[11] = target: T2, Plasmodium falciparum Hsp70-1; assay: SPR; ligand and analyte switched: PfHop immobilised, PfHsp70-1 analyte; with EGCG; bivalent fit model; conditions: both partners purified
[12] = target: T2, Plasmodium falciparum Hsp70-1; assay: SPR; PfHsp70-1 immobilised as ligand; PfHop analyte 0-2000 nM, 25 C, PBS; with 25 uM ATP; bivalent fit model; conditions: both partners purified
[13] = target: T2, Plasmodium falciparum Hsp70-1; assay: SPR; ligand and analyte switched: PfHop immobilised, PfHsp70-1 analyte; with ATP; bivalent fit model; conditions: both partners purified

Nc1ncnc2c1ncn2[C@@H]1O[C@H](COP(=O)(O)OP(=O)(O)O)[C@@H](O)[C@H]1O [ADP]
Effect on association of PfHsp70-1 and PfHop [1]: promoted the association

Nc1ncnc2c1ncn2[C@@H]1O[C@H](COP(=O)(O)OP(=O)(O)OP(=O)(O)O)[C@@H](O)[C@H]1O [ATP]
Effect on association of PfHsp70-1 and PfHop [1]: abrogated the association
Kd (PfHop): 861 ± 10 nM

O=C(O[C@@H]1Cc2c(O)cc(O)cc2O[C@@H]1c1cc(O)c(O)c(O)c1)c1cc(O)c(O)c(O)c1 [EGCG, (−)-Epigallocatechin-3-gallate]
IC50 ([1]; ligand PfHop, analyte PfHsp70-1): 14.6 ± 1.8 nM
IC50 ([1]; ligand PfHsp70-1, analyte PfHop): 13.9 ± 1.2 nM

CCN(CC)CCCC(C)Nc1ccnc2cc(Cl)ccc12 (stereo not shown) [chloroquine]
IC50 [2]: 29.1 ± 1.3 nM
IC50 [3]: 21 ± 1.7 nM

B1: Plasmodium falciparum Hsp90-Hsp70 organizing protein (natural protein, UniProt Q8ILC1 1-564, looked up)
chain: MVNKEEAQRLKELGNKCFQEGKYEEAVKYFSDAITNDPLDHVLYSNLSGAFASLGRFYEALESANKCISIKKDWPKGYIRKGCAEHGLRQLSNAEKTYLEGLKIDPNNKSLQDALSKVRNENMLENAQLIAHLNNIIENDPQLKSYKEENSNYPHELLNTIKSINSNPMNIRIILSTCHPKISEGVEKFFGFKFTGEGNDAEERQRQQREEEERRKKKEEEERKKKEEEEMKKQNRTPEQIQGDEHKLKGNEFYKQKKFDEALKEYEEAIQINPNDIMYHYNKAAVHIEMKNYDKAVETCLYAIENRYNFKAEFIQVAKLYNRLAISYINMKKYDLAIEAYRKSLVEDNNRATRNALKELERRKEKEEKEAYIDPDKAEEHKNKGNEYFKNNDFPNAKKEYDEAIRRNPNDAKLYSNRAAALTKLIEYPSALEDVMKAIELDPTFVKAYSRKGNLHFFMKDYYKALQAYNKGLELDPNNKECLEGYQRCAFKIDEMSKSEKVDEEQFKKSMADPEIQQIISDPQFQIILQKLNENPNSISEYIKDPKIFNGLQKLIAAGILKVR
notes: Plasmodium falciparum Hsp90-Hsp70 organizing protein, PfHop (PF3D7_1434300); also called PfHop; PF3D7_1434300
Kd [4]: 3.08 nM
koff [4]: 0.00308 s⁻¹
kon [4]: 781000 M⁻¹ s⁻¹
Kd [5]: 3.1 nM
koff [5]: 0.025 s⁻¹
kon [5]: 8.07e+06 M⁻¹ s⁻¹
Kd [6]: 20700 nM
koff [6]: 0.13 s⁻¹
kon [6]: 6310 M⁻¹ s⁻¹
Kd [7]: 4.49 nM
koff [7]: 0.0341 s⁻¹
kon [7]: 7.6e+06 M⁻¹ s⁻¹
Kd [8]: 4.24 nM
koff [8]: 0.00325 s⁻¹
kon [8]: 767000 M⁻¹ s⁻¹
Kd [9]: 232 nM
koff [9]: 0.00811 s⁻¹
kon [9]: 35000 M⁻¹ s⁻¹
Kd [10]: 214 nM
koff [10]: 0.0266 s⁻¹
kon [10]: 125000 M⁻¹ s⁻¹
Kd [11]: 1360 nM
koff [11]: 0.00914 s⁻¹
kon [11]: 6710 M⁻¹ s⁻¹
Kd [12]: 79.8 nM
koff [12]: 0.0207 s⁻¹
kon [12]: 259000 M⁻¹ s⁻¹
Kd [13]: 80.9 nM
koff [13]: 0.0215 s⁻¹
kon [13]: 266000 M⁻¹ s⁻¹
